Measured values reported in the DeepSol protein solubility set.

Experiment: soluble on expression in E. coli; label from the status in PepcDB or PDB records

Sequence	soluble on expression in E. coli
SELSQLLNEIRANYEKILTRNQIETVLSTRIQLEEDISKKMDKDEEALKAAQAELKEARRQWHHLQVEIESLHAVERGLENSLHASEQHYQMQLQDLETVIEGLEKELQEVRRGIEKQLQEHEMLLNTKMRLEQEIATYRHLLEKEEIRYYGCIQGGKKDKKPTTSRVGFVLPSAIINEISFTTKVPQKYENENVETVTKQAILNGSIVKESTEAHGTIQTEKVDEVIKEWEGSFFKDNPRLRKKSVSLRFDLHLAATDEGCLETKQDNLPDIEVRLIMRRSCSIPSIKPPSTAN	soluble
MPGSRTYRKVDPPDVEQLGRSSWTLLHSVAASYPAQPTDQQKGEMKQFLNIFSHIYPCNWCAKDFEKYIRENAPQVESREELGRWMCEAHNKVNKKLRKPKFDCNFWEKRWKDGWDE	not soluble
MGSDKIHHHHHHMSEQQCTELKVLDTVPFGQVSGDAQFYALRLEKPRWKSWKPGQFVMIRPQGWALDMLWARPFSICRVSSRDLVLFFQAVGRGTRRLADLKAGDTVVVWGPLGNSFAVEPETPTLMLAGGIGIAPFIGYAHTHPKPWNLWMEFGHRMPLGCYPFESINEKIMADNHQEECPDDLLRFIERLEKRIAEYAEQDGLVLACGPTPFLRTVQRFALQYGARCQLSLETRMACGVGGCLGCVTSTTEKHHLHHTQAGKAQVCNNGPVFWADQVDLDKA	not soluble
MHKNLFHWLMERGYQVLVEKEVAITLELPFEHLATLEEIGHRAQLAIVIGGDGNMLGRARVLAKYDIPLIGINRGNLGFLTDIDPKNAYSQLEACLERGEFFVEERFLLEAKIERASEIVSTSNAVNEAVIHPAKIAHMIDFHVYINDKFAFSQRSDGLIVSTPTGSTAYSLSAGGPILTPNLNAIALVPMFPHTLTSRPLVVDGDSKISIRFAEHNTSQLEVGCDSQITLPFTPDDVVHIQKSEHKLRLLHLKIIIITMC	soluble
MAHHHHHHMSFTEWPVSRVRQEFVDYFKKQGHTFVPSSPVCPHDDPTLLFINAGMNQFKALFLGTADPNTDFGRLKRAANSQMCIRAGGKHNDLEDVGRDTYHHTFFEMLGSWSFGDYFKKEAIQWAWELLTEVYKLPKDQLYVTYFEGDESNGLDPDLEAKELWGQLLPESQIVPGNAKDNFWEMGDTGPCGPCSEVHFDRIGRRNAASLVNKDDPMVVEIWNLVFMQFERRAGGFLTPLPQKHIDTGMGLERLTSILQGVKSNYDTDAWIPLFEAIQTATGYPKSYAEIRNDPDSDALVAYRVVADHIRCLTSAVGDGVMPDSVGRGFVLRRIIRRAVRYGVQFLGAKPGFFTQLVDSVCTSLGPFFPHLKEPRNIQRIKAVLADEEQSFAKTWEMGLKHFNHAVNECRANSSKVISGSEAFVLHDRYGFPVDLTCLLAEKDGMTVDLEGFNTEMKESKVSAGRVAATKTFIDAYQLEELKTRGIPQTNDAAKYVWEDYTGDVLAIFDKKNSKFISLLEPGNDLGAEGVGIILSTTNFYAESGGQVYDTGRLVAASDSVFEGRRRTTWPATWCTWATSASTLPPRSPRLRWCSCRWTTSAACRSRQTIPRPTS	not soluble
MEEAPFYRDTWVEVDLDAIYNNVTHIKEFIPSDVEIFAVVKGNAYGHDYVPVAKIALEAGATRLAVAFLDEALVLRRAGITAPILVLGPSPPRDINVAAENDVALTVFQKEWVDEAIKLWDGSSTMKYHINFDSGMGRIGIRERKELKGFLKSLEGAPFLELEGVYTHFATADEVETSYFDKQYNTFLEQLSWLKEFGVDPKFVHTANSAATLRFQGITFNAVRIGIAMYGLSPSVEIRPFLPFKLEPALSLHTKVAHIKQVIKGDGISYNVTYRTKTEEWIATVAIGYADGWLRRLQGFEVLVNGKRVPIVGRVTMDQFMIHLPCEVPLGTKVTLIGRQGDEYISATEVAEYSGTINYEIITTISFRVPRIFIRNGKVVEVINYLNDILEENLYFQ	soluble
MAFESSKSYYSIGEVSRISGIPAYLLRYWEDYFSELAPARDTRGNRRYTNRDIAMVLNIKDLVYEKGYKLNKASQMVKGGKVDHDGADHKTNEILKLQKQLLREQKEYEITGERRRMLLLEIKDEIEDILELLG	not soluble
SNVRATYTVIFKNASGLPNGYDNWGWGCTLSYYGGAMIINPQEGKYGAVSLKRNSGSFRGGSLRFDMKNEGKVKILVENSEADEKFEVETISPSDEYVTYILDVDFDLPFDRIAFQDAPGNGDRIWIKNLVHSTGSADDFVDPINLEHHHHHH	soluble
MSLSTYILNTNDKARERLSLQHQLYAKSSLDLLSEVGPSAAMTALEIGCGSGDMTLELAKLIGREGSLLTIDLSQDQLDHTQQRTRTYSNIRFKVWDVNHLSDLGEKFDLIYCRMVLHHVADARSVILQMKNCLNSGGFVVCEEPSLFDSTFCSPPSPSYDQFTQWARSCFSKSNRDFQIAHRLEQEFSSCGFEIEHCSLFQPLLRTNKEKLIYSMALDDLTPQLLELGIAKREEIKQLHNELEDLAKTNSTMCWIRMHKIIAKLNEGHHHHHH	soluble
MAHHHHHHAYLPPNMAERLQMSSSSTEPTTTSSMLPAPHSSANMRHIEGLVVVPGVVKVSRSDVASQYTMPHTNNAPLLFSEPEHRAVDNSSGSNDAQLEPKDPHLGLMPHCLSCTLLTSAGAQEPDDVYGRSMPSSSAVGAVTTELECAVVPTLHASFTPGVSTSIMPAPTEAHSACGSRPLQQPRWGGNYDSGSQCVSFRGADRSNNVSGCGLRLVGDDVEWLQGSFEDSASSPREEVQLSWGHLQRQPCAGKSSAARAVPPALHDVREGTGGEKVLAAHHRFERAVQPQTQRQGVFPSADQENCQAAAMLWAAQQMAVFD	soluble
MGSDKIHHHHHHMIKGIGTNVDTRRVNGSIKRLVSELEFFKSIGFDYVEIPAAGLDVIARGRIIRKRLERVKELLSNYNFRYTVHAPDVINLKIKTNPWHYRVMEATIEFAGEINAEVVVYHYGEVDHSIDVPERVQRKAEIVALRELADLAKEKGVVIGVENVGHPVSEVLKLVRAVNHPNVKLVIDVGHLFIVSNYTGIDFYDELKKGLPYAVELHLSDNFGESPQTYQKIPDVEAFRFVYGIGDLHLPIGEGDIPYNKVFRIIRESGFDGIVILEINSMDRFADEYADSLNLLRKRLILAADNNKTKKRRKVK	not soluble
MYNDPRSHGLWEKTAPQPPVTPALQGDAVADVVVVGGGFTGQSAALHLAEGGLDVILLEAKEIGFGGAGRNVGLINGGMWVMPKELPDVLGETYGERLLDLLGDAPVLVRELVEKHGIPCEIEKNGTLHCAVGEKGLAEIRERCEQWSARGAPVRVLDADETASYIGSTAYSGALLDSRAGTIQPLAYVRGLAGAALKAGVRLHTASPVNETGRNGAKWVVKTPEGSVTAKWIVVATEAYSTGPWQIIREEQVYLPYFNFATRPLSDNLQKSILPGRQGCWDTKEILSSFRMDKAGRLVFGSVGALRGTGTAIHRAWAKRSLKRLFPQLGDTEFECEWYGQIGMTDNAVPRFHKFAENVIGFSGYNGRGIAPGTAFGKVIAQHILGEIAEADLPLPVTEPKAQAFRAVKEAYYEAGAQIAHFAGERFLEHHHHHH	not soluble
MTDNTLTPQMLTGLSTDHLVVLSGAHRLQPQAAEAFQAMQQAAKVAGFDLQPASTFRDFGRQLAIWNGKFRGERPVLDQDSQPIDIFSLDTAARCEAILRWSALPGTSRHHWGSDLDIYDPSRLPTGEKLQLEPWEYDAGGYFYPLTQWLSAHMAEFGFYRPFATDNGGVAVEPWHLSYRPLAEQAEHLLTPKILLAAWQSQDVAGSEWLASHLPMIFSRFIYLK	not soluble
MKGQVVSLHLGLGSGLPKPRVEALELVAGFGAKGDRHAGKDPDRAVLVAGLSAYEKAQGAGIPLPYGALGENLLLDLDPHALPPGARLRVGEALLELSQVCPVCKSLSQFDLRLPKLLYGGRGVYARVLEGGVVRVGDPVLVLAPAR	soluble
MSLAEPRYKADIGGGSLKLPESRIIAGLLLEGVTEDQWRHAIEVENVLQRRSPGTAKRQSSLMRNRLETMGPELWQMVRDGSTQVAIQAVFAAAIKHSTLLGDFLDLVVRDQFRMFRPDLPRKMWDQYLEQCRNRDPLMPVWQDSTANKLADCVYRILVEVGYITDSKTYRLKSVRISGEVMSYLRENNEQYVIRCIQVSIEGHHHHHH	soluble
MKSPSAGAPDRHASSRSVPDRWNMHKPMLCDSLPTASRTAAAILNLAQREDVTAEALAQLIQTDPALTGRILRFANAPAQGTRRPVASVIDAIDLVGLPAVRQFALSLSLIDAHREGRCEAFDYAAYWQKSLARAVALQSITAQASTVAPKEAFTLGLLADVGRLALATAWPEEYSECLRKADGEALIALERERFATDHDELTRMLLTDWGFPQVFIDALQLSQQDEIRDEGRTGRFARQLALAQHIADHRLAEEPRRAALSPLLRAEARRCGLGDEDLARLLADPPADWLDWTRTIGLPGDAPTGGAEPSRPPPQTDEKLHVLLADDDPIMLARLSRQLEADGHHVASRRDGETALAYALEHQPEMVITDWHMKPMNGLELCRALRESALGGNVYIVMLTASESEDALVEAFGAGIDDYVIKPPSVRVLKARIRAGQRIITLHKKLARERKEIERYSSELAAANRRLELMAHTDQLTGLPNRRYAMDRLEREWAQARTFDRPLSIMMLDLDWFKSINDSLGHDAGDQALVHAARVMRETVRTSDVVCRMGGEEFLIIIPDTAGPAAIQTAERVRSAVEQQQPAKLKLSRPLTASIGVADSTSAPSLKDLLLKADNALYQVKQNGRNGVRYAGLAAALEHHHHHH	not soluble
MLSAESLKQIDIELAKYPADQRRSAIMGALRIAQTEKGWLAPETIAFVADYIGISPAQAYEVATFYNMYDLEPVGKYKLTVCTNLPCALRGGMATGEYLKQKLGISYGETTPDGKFTLVEGECMGACGDAPVMLLNNHKMCSFMTEEAIEKKLAELELEHHHHHH	soluble
MLYLTQRLEIPAAATASVTLPIDVRVKSRVKVTLNDGRDAGLLLPRGLLLRGGDVLSNEEGTDFVQVIAADEEVSVVRCDDPFMLAKACYALGNRHVPLQIMPGELRYHHDHVLDDMLRQFGLTVTFGQLPFEPEAGAYASES	soluble
MGSDKIHHHHHHMNSTMQVLVIGGTGTLGRQIAKNAIDAGHKVRCMVRKPKAASFLQEWGCELTRGNLLNKEDIEYALDGIDAVIDAATSRPDDPRSVYETDWDGKLNLFNACEEKNVKRVVFLSLLAAEKYREIPLMDIKYCTEELLVSSSLDYTILQGVAFMQGAIGQFAIPILNNEPVWISGNPTDIAYMNTQDIARFAVAALDRPQTIKGRFPIVGPKAWSAKGLVDLCEKFSEKRARVLKVSPTIISIAQSVVSFFEPTLNVAERLSFSELSGSGGKLDAPMEDTYTAFGLNPADTTTMEGYIKEYYGVILKRLKDIGVDLDIEEKKKFPI	not soluble
MGSDKIHHHHHHMLEFTLNFNDYGLKMGILTKLELDYEIDDIEKFLQFFRTMCDRFEPLIIKLGSDSVRYKEAIKELETLAHNTAWAARRLNLEEVTDFCVFCEEMMAQANRFNGPASDEFTDWMLLMSDQFEKYCRSYENDDSVLAVFNPLIVNVPNIISK	not soluble
MSLKVHGVILMNIEEWEEYRYVEAGIKESITLIEDPGLKKMVEHVCHSGGKRIRPIILLLVSEICSGSYSRSLNAALAVEMMHSASLIHDDLLDQGLVRRNLPSAPEKFGPSGALLCGDYLIAKSIAFISPYGEKVIQDFGKAGMDMAEGEVLDLKLEDESFGENDYFKCIYKKTASLFAISASIGAYTGGAEEELAERFSHFGNALGTAYQIVDDILEFLEVVEGKESKFTSETLPHIYMKSTSKEEALKKSIDCVKLHVAAAKETLETFRECPARDKLFQITDYITVDMLENLEGHHHHHH	soluble
